In patent publication US20080318868A1:

Key:
[1] = biological target: CS40 anti-ManLAM monoclonal antibody; test: competitive ELISA, ManLAM-coated plate, CS40 (1:2000) mixed with peptide
[2] = biological target: CS40 anti-ManLAM monoclonal antibody; test: competitive ELISA, ManLAM-coated plate, CS40 (1:2000) mixed with peptide; at 50 µg/ml peptide

## ISLTEWSMWYRH [B11 synthetic peptide]
[1]
  peptide concentration giving 100% decrease in OD: 50 µg/mL
[2]
  decrease in OD (inhibition of CS40 binding to ManLAM): 100%
